Experimental data reported in patent publication US11124779B2, “Compositions and methods for treating and preventing pancreatitis, renal injury and cancer” (Yale University, priority 2014, dated 2021).
Entries after “also recorded” stand apart in the source; their conditions may differ.

Assays:
[1] = cited from earlier work
[2] = target: PMCA (Homo sapiens, UniProt P23634); test: Ca2+ efflux through PMCA, time lapse confocal microscopy, HK2 cells; type: cell-based
Experimental: (§1) FIGS. 12A-12F, depict the results of experiments showing renalase increases Ca^2+ efflux through PCMA. Changes in whole cell cytosolic Ca^2+ were recorded with the Ca^2+ dye Fluo-4 (HK2 cells) or Fluo-5 (acinar cell) by time lapse confocal microscopy. FIGS. 12A, 12B, 12D, and 12E are representative plots of fluorescence over time in HK2 cells (FIGS. 12A and 12B) or mouse acinar cells (FIGS. 12D and 12E). Cells were pretreated with 30 μM cyclopiazonic acid and perfused with Ca^2+-free medium. Cells were briefly stimulated with 10 nM angiotensin IV (Ang in HK2 cells) or 100 nM cerulein (Cer in acinar cells) in the presence of 1.3 mM Ca^2+. […] For FIGS. 12C and 12F, the rate of Ca^2+ efflux was quantified from 30 cells/treatment group. *p<0.05 vs. no renalase. […]
(§2) PMCA selectively binds renalase (FIG. 6). […] Since the protective effects of renalase were first characterized in HK-2 cells (human kidney cell line) (Lee et al., 2013, J Am Soc Nephrol 24, 445-455; Wang et al., 2014, Journal of the American Society of Nephrology: JASN), its effects on Ca^2+ signals were evaluated in these cells and subsequently in mouse acinar cells (FIG. 12). […] Perfusion buffer was then switched back to Ca^2+-free medium in the presence or absence of renalase, and cytosolic Ca^2+ levels were monitored over time and the rates of Ca^2+ efflux were calculated (FIG. 12). […]

[3] = target: T1, PMCA (Mus musculus, UniProt Q6Q477); test: Ca2+ efflux through PMCA, time lapse confocal microscopy, mouse acinar cells; type: cell-based
T1 sequence (Q6Q477 1-1205): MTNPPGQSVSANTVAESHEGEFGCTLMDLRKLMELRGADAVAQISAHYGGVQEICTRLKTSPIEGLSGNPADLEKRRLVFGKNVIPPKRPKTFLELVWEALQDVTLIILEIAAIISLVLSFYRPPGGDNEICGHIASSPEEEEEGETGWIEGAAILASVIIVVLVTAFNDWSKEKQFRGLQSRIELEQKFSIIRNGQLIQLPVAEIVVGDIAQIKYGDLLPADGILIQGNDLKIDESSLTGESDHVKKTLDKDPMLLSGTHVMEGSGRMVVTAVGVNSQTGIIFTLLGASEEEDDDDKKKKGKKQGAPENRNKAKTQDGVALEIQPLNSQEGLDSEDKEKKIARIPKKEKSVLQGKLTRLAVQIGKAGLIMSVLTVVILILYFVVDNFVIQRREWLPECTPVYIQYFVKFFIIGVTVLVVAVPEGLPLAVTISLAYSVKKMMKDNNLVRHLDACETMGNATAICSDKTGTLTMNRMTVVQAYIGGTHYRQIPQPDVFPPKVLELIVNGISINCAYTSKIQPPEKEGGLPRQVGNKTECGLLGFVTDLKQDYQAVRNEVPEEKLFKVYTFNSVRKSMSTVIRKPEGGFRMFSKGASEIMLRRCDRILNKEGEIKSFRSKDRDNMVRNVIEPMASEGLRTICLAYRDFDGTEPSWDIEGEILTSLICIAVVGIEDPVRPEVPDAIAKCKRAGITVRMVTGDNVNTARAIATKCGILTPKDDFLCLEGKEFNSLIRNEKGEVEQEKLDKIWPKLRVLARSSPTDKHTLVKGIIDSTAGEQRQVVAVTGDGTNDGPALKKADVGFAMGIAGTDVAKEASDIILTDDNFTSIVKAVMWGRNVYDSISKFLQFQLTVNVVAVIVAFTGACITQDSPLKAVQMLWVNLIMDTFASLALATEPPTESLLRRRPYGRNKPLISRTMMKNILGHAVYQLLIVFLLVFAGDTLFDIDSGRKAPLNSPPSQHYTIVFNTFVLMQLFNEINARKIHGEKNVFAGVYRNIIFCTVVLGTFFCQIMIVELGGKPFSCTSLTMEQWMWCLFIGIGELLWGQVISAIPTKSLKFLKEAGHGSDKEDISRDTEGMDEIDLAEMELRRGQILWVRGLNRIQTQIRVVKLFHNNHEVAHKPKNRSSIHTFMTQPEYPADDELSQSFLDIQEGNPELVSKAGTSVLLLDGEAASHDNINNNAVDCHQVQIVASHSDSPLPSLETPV
Experimental: as §1, §2

[4] = tested on: p38 MAPK; conditions: HK-2 cell, treatment alone; Wang et al., 2014; cited from earlier work
[5] = tested on: isolated mouse acini; test: Injury of isolated mouse pancreatic acini (MTT, LDH release, H&E histology); type: cell-based; conditions: WT mouse acini, renalase 25 μg/mL, cerulein
Experimental: (§3) FIGS. 9A-9E, depict the results of experiments that show recombinant exogenous renalase reduce zymogen activation and injury in vitro in mice. (FIG. 9A) Isolated WT mouse acini were pretreated for 30 minutes with recombinant renalase (25 μg/mL; 0.1 μM) and then treated with either (FIG. 9A, 9D, 9E) physiologic (0.1 nM) and supraphysiologic (100 nM) cerulein or (FIG. 9B) physiologic (1 μM) or supraphysiologic (1000 μM) carbachol for 30 minutes. Trypsin activity (FIGS. 9A-9C), MTT accumulation (FIG. 9D), and LDH release (FIG. 9E) were assayed using a fluorogenic substrate. For FIG. 9C, isolated acini from renalase ^−/^− mice were treated pretreated with recombinant renalase (25 μg/mL) and then treated with cerulein (0.1 nM or 100 nM) for 30 minutes. *p<0.05 vs. supraphysiologic cerulein or carbachol, # p<0.05 vs. WT, n=3, +/−SEM.
FIGS. 13A-13C, depict the results of experiments showing caloxin blocks the protective effects of renalase. […]
Next, it was assessed whether pretreatment with recombinant human renalase reduces injury in pancreatitis. This was first assessed in isolated groups of murine acinar cells (acini) that were exposed to supraphysiologic concentrations of cerulein and carbachol (which induces early acinar cell pancreatitis responses) in isolated WT mouse acini and acini isolated from renalase deficient mice in vitro (FIG. 9). […]

[6] = tested on: HK-2 cells; test: In vitro model of cisplatin toxicity: HK-2 cell survival by the WST-1 method; type: cell-based, human; conditions: 20 μM cisplatin, 24 hrs; test substance 80 μg/ml
Experimental: FIG. 1B is a graph depicting the effect of renalase peptides on survival of HK-2 cells exposed to 20 μM cisplatin for 24 hrs; cell survival is depicted as % change in survival compared to that in cisplatin-treated HK-2 cells without renalase peptides; cell survival was measured by the WST-1 method; RP-A220: mutated RP-220, and RP-19 and RP-128: control peptides; peptide concentration (μg/ml) indicated in top line; n=4, *=p<0.05. […]
HK-2 cells (human proximal tubular line) obtained from ATTC (Manassas, Va., USA) were cultured in DMEM/F12 supplemented with glutamine, 10% FBS and antibiotics, and were maintained at 37° C. in 5% CO2. Cells were exposed to cisplatin (20 μM) in the presence or absence of recombinant renalase or renalase peptides for 24 hrs, and cell viability was assessed by the WST1 method (Roche Applied Science, Germany).

[7] = tested on: mice; conditions: literature (Lee et al., 2013; Wang et al., 2014); cited from earlier work
[8] = tested on: renalase KO mice; conditions: Wang et al., 2014; cited from earlier work
[9] = tested on: isolated mouse acini; test: Trypsin activity (zymogen activation) in isolated mouse pancreatic acini; type: cell-based
Experimental: as §3
FIGS. 13A-13C, depict the results of experiments showing caloxin blocks the protective effects of renalase. Isolated WT mouse acini were pretreated for 30 minutes with caloxin 1b (100 μM) and/or recombinant renalase (25 μg/mL) and then treated with supraphysiologic (100 nM) cerulein (CER) and assayed for trypsin activity (FIG. 13A) or MTT conversion (FIG. 13B). *p<0.05 vs. CER, # p<0.05 vs. CER+renalase. WT, n=3, +/−SEM.
Next, it was assessed whether pretreatment with recombinant human renalase reduces injury in pancreatitis. This was first assessed in isolated groups of murine acinar cells (acini) that were exposed to supraphysiologic concentrations of cerulein and carbachol (which induces early acinar cell pancreatitis responses) in isolated WT mouse acini and acini isolated from renalase deficient mice in vitro (FIG. 9). The recombinant renalase reduced trypsinogen activation induced by either cerulein (FIG. 9A) or carbachol (FIG. 9B). […] Renalase had no effect on untreated acini or acini treated with physiologic stimulation.

[10] = tested on: WT mice; test: Cerulein-induced pancreatitis in vivo; parameters: species or system mouse; conditions: single IP dose 2 hours after initiating cerulein pancreatitis; sacrificed at hour 7
Experimental: FIGS. 10A-10G, depict the results of experiments showing that pretreatment with renalase peptide (RP-220) ameliorates cerulein-induced pancreatitis in vivo. WT mice were treated with 6 hourly IP injections of cerulein (CER, 40 mcg/kg). IP renalase peptide, RP-220 (renalase, 1.3 mg/kg) was given 1 hour before first cerulein injection. (FIG. 10A) Pancreatic trypsin activation measured with fluorogenic substrate, normalized to total protein. (FIG. 10B) Edema measured as % wet weight. (FIG. 10C) Apoptosis evaluated by TUNEL positive cells. (FIG. 10D) Neutrophils (Ly-6B) and (FIG. 10E) macrophages (F4/80) were quantified. Pancreas H&E sections (FIG. 10G) were evaluated for edema, pyknotic nucei, and vacuoles to derive morphological score (FIG. 10F). *p<0.05 vs. WT-CER, +/−SEM, n=5.
A single dose of renalase was given intraperitoneally (100 μg peptide/25 g body weight) 2 hours after inducing cerulein-pancreatitis. Six hourly injections IP of 50 μg/kg and animals were sacrificed at hour 7. Histologic pancreatitis severity was evaluated by two blinded reviewers. […] N=4 mice in each group.
To determine whether the protective of renalase observed in isolated acini was relevant in vivo, WT mice were pretreated (1 hour) with a single dose of the renalase peptide (RP-220) intraperitoneally (100 μg peptide/25 g body weight) prior to inducing cerulein-pancreatitis (6 hourly injections IP of 50 μg/kg). […]

[11] = tested on: ERK; conditions: HK-2 cell, treatment alone; Wang et al., 2014; cited from earlier work

Chain of PMCA (Homo sapiens, UniProt P23634) (P23634 1-1205 isoform P23634-6): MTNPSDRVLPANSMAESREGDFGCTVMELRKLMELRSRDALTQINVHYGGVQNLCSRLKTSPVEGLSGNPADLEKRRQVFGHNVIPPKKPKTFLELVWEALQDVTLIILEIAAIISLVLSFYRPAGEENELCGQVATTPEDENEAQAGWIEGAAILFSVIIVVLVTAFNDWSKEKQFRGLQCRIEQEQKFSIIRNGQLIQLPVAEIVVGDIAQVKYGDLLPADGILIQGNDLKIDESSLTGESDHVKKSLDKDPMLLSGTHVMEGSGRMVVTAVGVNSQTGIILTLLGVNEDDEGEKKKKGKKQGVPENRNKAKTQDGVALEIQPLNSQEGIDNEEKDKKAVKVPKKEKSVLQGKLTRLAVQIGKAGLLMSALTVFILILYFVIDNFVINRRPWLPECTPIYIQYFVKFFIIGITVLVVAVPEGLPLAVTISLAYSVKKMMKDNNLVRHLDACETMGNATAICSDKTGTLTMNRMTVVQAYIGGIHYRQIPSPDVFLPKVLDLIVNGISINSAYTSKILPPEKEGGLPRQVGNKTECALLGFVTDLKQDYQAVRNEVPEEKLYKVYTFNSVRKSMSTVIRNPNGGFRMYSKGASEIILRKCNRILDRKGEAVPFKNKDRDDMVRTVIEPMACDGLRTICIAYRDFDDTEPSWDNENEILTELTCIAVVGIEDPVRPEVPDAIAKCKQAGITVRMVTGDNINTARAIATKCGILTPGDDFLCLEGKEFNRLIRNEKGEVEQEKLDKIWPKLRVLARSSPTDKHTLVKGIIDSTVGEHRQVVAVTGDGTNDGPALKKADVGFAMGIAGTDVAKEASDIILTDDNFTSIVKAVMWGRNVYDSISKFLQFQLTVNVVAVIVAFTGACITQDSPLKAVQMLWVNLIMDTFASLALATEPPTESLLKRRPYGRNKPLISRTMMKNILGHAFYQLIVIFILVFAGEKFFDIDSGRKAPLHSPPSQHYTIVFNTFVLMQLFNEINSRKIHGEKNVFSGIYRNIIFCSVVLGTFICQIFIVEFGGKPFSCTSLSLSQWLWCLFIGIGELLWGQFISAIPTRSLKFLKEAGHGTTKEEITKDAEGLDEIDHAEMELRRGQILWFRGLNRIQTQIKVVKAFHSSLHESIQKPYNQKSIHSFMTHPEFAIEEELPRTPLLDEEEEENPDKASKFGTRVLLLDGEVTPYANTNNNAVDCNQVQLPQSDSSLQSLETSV

B1: recombinant renalase: recombinant full-length human renalase, secretory flavoprotein oxidase; synthesized as in Desir et al., 2012; SEQ ID NO: 8 or 9 (protein)
chain: ALLRRQTSGPLYLAVWDKAEDSGGRMTTACSPHNPQCTADLGAQYITCTPHYAKKHQRFYDELLAYGVLRPLSSPIEGMVMKEGDCNFVAPQGISSIIKHYLKESGAEVYFRHRVTQINLRDDKWEVSKQTGSPEQFDLIVLTMPVPEILQLQGDITTLISECQRQQLEAVSYSSRYALGLFYEAGTKIDVPWAGQYITSNPCIRFVSIDNKKRNIESSEIGPSLVIHTTVPFGVTYLEHSIEDVQELVFQQLENILPGLPQPIATKCQKWRHSQVTNAAANCPGQMTLHHKPFLACGGDGFTQSNFDGCITSALCVLEALKNYI
In the case of B1, the blood pressure ([1]; rodents, Xu et al., 2005, Milani et al., 2011) is given as “decreases blood pressure”, the plasma catecholamines ([1]; wild type (WT) mice) is given as “lowers” and the systemic blood pressure ([1]; wild type (WT) mice) is given as “lowers”. For the same molecule, the “baseline Ca2+ levels” value [2] was “did not change”, the “rate of Ca2+ efflux” value ([2]; 10 nM angiotensin IV, Ca2+-free and Na+-free medium, cyclopiazonic acid) was “increased” and the “baseline Ca2+ levels” value [3] was “did not change”. For the same molecule, the “rate of Ca2+ efflux” value ([3]; 100 nM cerulein, Ca2+-free medium, cyclopiazonic acid) was “increased”, the p38 phosphorylation [4] was “rapidly increased” and the “injury of acini in vitro (MTT accumulation, LDH release)” value [5] was “reduce”. For the same molecule, the “survival of HK-2 cells exposed to cisplatin (protective effect)” value [6] was “protected HK-2 cells to a similar degree”, the “ischemic acute kidney injury (AKI)” value [7] was “significantly attenuates; also recorded: protects mice against ischemic AKI” and the “activating MAPK signaling in renalase KO mice” value [8] was “neither renalase nor RP-220 is effective”. The “protecting renalase KO mice against mild or severe ischemic AKI” value [8] was “neither renalase nor RP-220 is effective”, the “trypsinogen activation induced by cerulein” value ([9]; WT mouse acini, renalase 25 μg/mL 30 minutes pretreatment, supraphysiologic (100 nM) cerulein) was “reduced” and the “trypsinogen activation induced by carbachol” value ([9]; WT mouse acini, renalase 25 μg/mL 30 minutes pretreatment, supraphysiologic (1000 μM) carbachol) was “reduced”. For the same molecule, the “effect on untreated acini” value ([9]; no stimulation) was “no effect”, the “effect on acini treated with physiologic stimulation” value ([9]; physiologic cerulein (0.1 nM) or carbachol (1 μM)) was “no effect” and the “trypsinogen activation in acini from renalase knockout (KO) mice” value ([9]; renalase 25 μg/mL, cerulein 0.1 nM or 100 nM, 30 minutes) was “reduced”. The “individual and aggregate histologic scores of pancreatitis” value [10] was “significantly decreased injury; also recorded: significantly less” and the ERK phosphorylation [11] was “rapidly increased”.
